This note sets out measurements from publication PMC10855774, “Role of Spexin in White Adipose Tissue Thermogenesis under Basal and Cold-Stimulated Conditions” (International Journal of Molecular Sciences, 2024).

Format in all cases: in vivo, mice
A short description of series [1]: Plasma glucose and triglyceride levels (commercial kits). The settings on record: SPX 29 µg/kg/day ten days, RT or cold; non-fasting; n = 6–7. The method, then: (§1) Normal adult male C57BL/6 mice (four months of age) were kept in a temperature-controlled environment (20–22 °C and a fixed 12 h light/12 h dark cycle; lights on at 07:00 h) and fed ad libitum with Purina commercial rat/mouse chow (Ganave, Buenos Aires, Argentina, L0723/1). Mice were injected with SPX or PBS (29 µg/kg/day, Tocris, Bristol, UK) for ten days (the SPX and CTR groups, respectively). On the third day of the protocol, each group was subdivided into two other groups: one exposed to cold (4 °C, CTR-C and SPX-C, n = 12 mice for each group) and another one housed at RT (CTR and SPX, n = 15 mice for each group) (Figure 1). Food intake and body weight were measured every day. On the experimental day (day 10), the mice were euthanized under non-fasting conditions (08:00 to 09:00 h), and their trunk blood was collected; plasma samples were then frozen (–80 °C) until the metabolite measurement. Inguinal AT (IAT, subcutaneous depot), epididymal AT (EAT, visceral depot), and brown AT (BAT, subcutaneous depot) were aseptically dissected and weighed. These depots were kept at –80 °C for further procedures. […]
(§2) Circulating glucose (Glu) and triglyceride (Tg) levels were measured using commercial kits (Wiener Lab., Rosario, Argentina). Plasma SPX was measured using a commercial ELISA kit (SPX: Phoenix pharmaceutical EK-023-81).

For series [2], the system named is ucp1. Put plainly: ucp1 mRNA expression in AT depots (qRT-PCR). Here is the method:
Normal adult male C57BL/6 mice (four months of age) were kept in a temperature-controlled environment (20–22 °C and a fixed 12 h light/12 h dark cycle; lights on at 07:00 h) and fed ad libitum with Purina commercial rat/mouse chow (Ganave, Buenos Aires, Argentina, L0723/1). Mice were injected with SPX or PBS (29 µg/kg/day, Tocris, Bristol, UK) for ten days (the SPX and CTR groups, respectively). On the third day of the protocol, each group was subdivided into two other groups: one exposed to cold (4 °C, CTR-C and SPX-C, n = 12 mice for each group) and another one housed at RT (CTR and SPX, n = 15 mice for each group) (Figure 1). Food intake and body weight were measured every day. On the experimental day (day 10), the mice were euthanized under non-fasting conditions (08:00 to 09:00 h), and their trunk blood was collected; plasma samples were then frozen (–80 °C) until the metabolite measurement. Inguinal AT (IAT, subcutaneous depot), epididymal AT (EAT, visceral depot), and brown AT (BAT, subcutaneous depot) were aseptically dissected and weighed. These depots were kept at –80 °C for further procedures. Animals were euthanized according to protocols for animal use, in agreement with the NIH guidelines for the care and use of experimental animals. All experiments were approved by our Institutional Animal Care Committee (Approval code: 6NE-2023).
Total RNA was isolated from cells by the Trizol extraction method (Invitrogen, Life Technology, Waltham, MA, USA) and reverse-transcribed using random primers (250 ng) and RevertAid Reverse Transcriptase (200 U/µL, Thermo Scientific, Waltham, MA, USA). The cDNA (2 μL) was amplified with HOT FIRE Pol EvaGreenqPCR Mix Plus (Solis BioDyne, Tartu, Estonia) containing 0.5 μM of each specific primer, using a Rotor-Gene Q (Qiagen, Hilden, Germany). PCR efficiency was near 1. The expression levels were analyzed for β-actin (βactin, […] gene), Uncoupling Protein 1 (ucp1), proliferator-activated receptor gamma coactivator-1 alpha (pgc1α), cytochrome-c oxidase subunit 8b (cox8b), galanin receptors 2 and 3 (galr2 and galr3, respectively), and Spexin (spx). The designed primers are shown in alphabetical order in Table 1. The relative changes in the expression level of each gene (ΔΔCt) were calculated by the ΔCt method.
In general terms: In qPCR the cycle at which signal appears reflects the starting amount.

Series [3] concerns beige precursors (PDGFRα+; EBF2+). Put plainly: Beige precursors (PDGFRα+; EBF2+) in the SVF by flow cytometry. The conditions noted are these: SPX for 3 days prior to cold exposure; n = 4, t-test. Here is the method: Fresh EAT pads were dissected, weighed, and digested with collagenase, as previously reported. Briefly, fat tissue was minced and digested using 1 mg/mL of the collagenase solution in DMEM (at 37 °C for 40–60 min). After centrifugation (1000 rpm for 15 min), the SVF pellets were filtered (in a 50-µm-mesh nylon cloth) and washed with DMEM (x3). SVF cells were then resuspended in DMEM supplemented with 10% (v/v) FBS, HEPES ([…]), 100 IU/mL of penicillin, and 100 µg/mL of streptomycin (basal medium) and reserved for the flow cytometry protocol.
The SVF was prepared as reported above and counted and filtered through a 70-μM cell strainer. To block unspecific binding, the cells were resuspended in 10% inactivated FBS in FACS buffer (1% BSA in PBS) for 10 min. Then, the cells were incubated with the surface antibody anti-Pdgfrα (CD140a)-PE/Cy7 (1:200, BioLegend, San Diego, CA, USA) and washed twice with FACS buffer, followed by centrifugation (300× g, 5 min). Fixation was performed with 2% paraformaldehyde in PBS for 20 min at room temperature. After washing, the cells were subjected to permeabilization with 0.1 % Triton X100 in PBS for 15 min at room temperature. […] The samples were analyzed on a FACS Calibur flow cytometer (BD bioscience, Franklin Lakes, NJ, USA). […]
For orientation: Flow cytometry measures light scatter and fluorescence of single cells or particles in a stream.

The test system of series [4] is ucp1. Kind of series: UCP1 protein expression in EAT and IAT (Western blot). Here is the method:
as §1, with “measurement.” for “measurement. Inguinal AT (IAT, subcutaneous depot), epididymal AT (EAT, visceral depot), and brown AT (BAT, subcutaneous depot) were aseptically dissected and weighed. These depots were kept at –80 °C for further procedures.”
For protein analysis by Western blot, IAT and EAT were lysed in a RIPA buffer supplemented with a protease and phosphatase inhibitor cocktail. Protein contents were quantified with the bicinchoninic acid method (Thermo Scientific, Pierce™ BCA Protein Assay Kit). […] Finally, relative protein levels were calculated using Image J Fiji software 1.54f.

A short description of series [5]: Plasma SPX levels (ELISA) after SPX injection. Here is the method: as §2
Supplementary figure 1. SPX levels (ng/ml, EIA Phoe nix pharmaceutical) after intraperitoneal injec tion with SPX (29 µg/kg). or Vehicle in mic e Different time points we r e evaluated after ip. Injections (10, 20, 60, 180, 360 minutes).
Supplementary Figure 2. ucp1 (a), pgc1α (b) and cox8b (c) mRNA expression in B AT. In all case s, t wo -wa y A N O VA wa s performed for factor (S or C) and interaction (S x C) analysis and deta iled below the graph only when s ig n if ica nt .. When interaction is statist icall y s ig n if ica nt , group to gr oup comparison wa s performed by Bonferroni test. ++++ P<0.0001 vs. CTR and ***P<0.001 vs. CTR-C (n=4- 6 m ice per group). […]
(In general: An ELISA detects its analyte on a solid surface through an enzyme-linked reagent.)

[6] abbreviates: cold-stimulated conditions (7 days 4 °C), SPX-C vs. CTR-C p < 0.0001.

B1: Spexin (peptide, UniProt Q9BT56 27-116, looked up)
Spexin: APQRLLERRNWTPQAMLYLKGAQGRRFISDQSRRKDLSDRPLPERRSPNPQLLTIPEAATILLASLQKSPEDEEKNFDQTRFLEDSLLNW
modifications: Spexin
notes: novel adipokine, a peptide of 14 amino acids of the galanin family; purchased from Tocris
For the molecule B1, in series [1], the “plasma Tg levels” value is “did not change” and the plasma glucose levels result is on record as “did not change”. The “ucp1 mRNA expression in BAT” value in series [2] (RT and cold, C p < 0.001, Supplementary Figure S2a) is listed as “increased under cold exposure despite the SPX treatment”. Further, the “ucp1 mRNA expression in IAT and EAT” value in series [2] (RT, SPX vs. CTR) is “SPX inhibition was also significant, but only when a t-test was performed”. In addition, in series [2] (setting [6]), the “ucp1 mRNA expression in EAT” value was “ucp1 inhibition” and the “ucp1 mRNA expression in IAT” value is given as “ucp1 inhibition”. In series [3], the “abundance (%) of beige precursors in the SVF of EAT” value is listed as “no changes were observed in either of the two AT depots studied” and the “abundance (%) of beige precursors in the SVF of IAT” value is given as “no changes were observed in either of the two AT depots studied”. Also, the “UCP1 protein levels in EAT (Western blot)” value in series [4] (basal and cold conditions, p < 0.05, n = 4–6) is “reduced the UCP1 protein levels at both basal and cold conditions”. Also, the “UCP1 protein levels in IAT (Western blot)” value in series [4] (cold, SPX-C intermediate between CTR and CTR-C, C × S p < 0.05) is listed as “partial decrease in UCP1 levels”. In series [5] (day 10 of SPX 29 µg/kg/day, RT or cold, ELISA, n = 6–7), the “plasma SPX levels at end of protocol” value is on record as “did not differ between groups”. Moreover, the “plasma SPX levels 1 h after SPX injection vs. basal” value in series [5] (mice, single ip. injection SPX 29 µg/kg, 1 h, plasma ELISA) is reported as “two-fold higher than basal ones”. Besides, in series [5] (mice, single ip. injection SPX 29 µg/kg, 3 h, plasma ELISA), the “plasma SPX levels 3 h after SPX injection vs. basal” value is “back to basal levels”. Moreover, the “SPX half-life in plasma” value in series [5] (mice, single ip. injection SPX 29 µg/kg, plasma ELISA at 10, 20, 60, 180, 360 minutes) is recorded as “short”.
